The values that follow come from US11390660B2, “Uterine cancer treatments” (Immatics Biotechnologies GmbH, priority 2016, dated 2022).

For one assay, the target named is HLA-A*02:01 (Homo sapiens, UniProt P04439, D140Y/D185E/D98H/E176V/E277Q/G131W/G231S/I119V/I121R/I166T/I218V/L300P/L318F/N151K/N90K/P208A/P217A/Q86G/Q94H/R138H/R169H/T345S). Kind of assay: MHC binding assay: UV-ligand exchange with β2m ELISA. The conditions noted are these: peptide exchange yield, binding to HLA-A*02:01. An excerpt: Candidate peptides for T cell based therapies according to the present invention were further tested for their MHC binding capacity (affinity). The individual peptide-MHC complexes were produced by UV-ligand exchange, where a UV-sensitive peptide is cleaved upon UV-irradiation, and exchanged with the peptide of interest as analyzed. Only peptide candidates that can effectively bind and stabilize the peptide-receptive MHC molecules prevent dissociation of the MHC complexes. To determine the yield of the exchange reaction, an ELISA was performed based on the detection of the light chain (β2m) of stabilized MHC complexes. The assay was performed as generally described in Rodenko et al. (Rodenko et al., 2006).
96 well MAXISorp plates (NUNC) were coated over night with 2 ug/ml streptavidin in PBS at room temperature, washed 4× and blocked for 1 h at 37° C. in 2% BSA containing blocking buffer. Refolded HLA-A*02:01/MLA-001 monomers served as standards, covering the range of 15-500 ng/ml. Peptide-MHC monomers of the UV-exchange reaction were diluted 100 fold in blocking buffer. Samples were incubated for 1 h at 37° C., washed four times, incubated with 2 ug/ml HRP conjugated anti-β2m for 1 h at 37° C., washed again and detected with TMB solution that is stopped with […]. Absorption was measured at 450 nm. Candidate peptides that show a high exchange yield (preferably higher than 50%, most preferred higher than 75%) are generally preferred for a generation and production of antibodies or fragments thereof, and/or T cell receptors or fragments thereof, as they show sufficient avidity to the MHC molecules and prevent dissociation of the MHC complexes.
For orientation: An ELISA detects its analyte on a solid surface through an enzyme-linked reagent.

The subject of another assay is CD8+ T cells. Kind of assay: In vitro T-cell priming assay with aAPCs loaded with peptide/MHC complexes and anti-CD28 antibody, pMHC multimer readout. It counts as cell-based, human. The following applies: in vitro immunogenicity, percentage of positive wells, healthy HLA-A*02 donors (Table 10A). An excerpt: In order to obtain information regarding the immunogenicity of the TUMAPs of the present invention, the inventors performed investigations using an in vitro T-cell priming assay based on repeated stimulations of CD8+ T cells with artificial antigen presenting cells (aAPCs) loaded with peptide/MHC complexes and anti-CD28 antibody.
In order to perform in vitro stimulations by artificial antigen presenting cells loaded with peptide-MHC complex (pMHC) and anti-CD28 antibody, the inventors first isolated CD8+ T cells from fresh HLA-A*02 leukapheresis products via positive selection using CD8 microbeads (Miltenyi Biotec, Bergisch-Gladbach, Germany) of healthy donors obtained from the University clinics Mannheim, Germany, after informed consent.
PBMCs and isolated CD8+ lymphocytes were incubated in T-cell medium (TCM) until use consisting of RPMI-Glutamax (Invitrogen, Karlsruhe, Germany) supplemented with 10% heat inactivated human AB serum (PAN-Biotech, Aidenbach, Germany), 100 U/ml Penicillin/100 μg/ml Streptomycin (Cambrex, Cologne, Germany), 1 mM sodium pyruvate (CC Pro, Oberdorla, Germany), 20 μg/ml Gentamycin (Cambrex). 2.5 ng/ml IL-7 (PromoCell, Heidelberg, Germany) and 10 U/ml IL-2 (Novartis Pharma, Nürnberg, Germany) were also added to the TCM at this step.
Generation of pMHC/anti-CD28 coated beads, T-cell stimulations and readout was performed in a highly defined in vitro system using four different pMHC molecules per stimulation condition and 8 different pMHC molecules per readout condition.
The purified co-stimulatory mouse IgG2a anti human CD28 Ab 9.3 (Jung et al., 1987) was chemically biotinylated using Sulfo-N-hydroxysuccinimidobiotin as recommended by the manufacturer (Perbio, Bonn, Germany). Beads used were 5.6 μm diameter streptavidin coated polystyrene particles (Bangs Laboratories, Illinois, USA).
800.000 beads/200 μI were coated in 96-well plates in the presence of 4×12.5 ng different biotin-pMHC, washed and 600 ng biotin anti-CD28 were added subsequently in a volume of 200 μI. Stimulations were initiated in 96-well plates by co-incubating 1×10^6 CD8+ T cells with 2×10^5 washed coated beads in 200 μI TCM supplemented with 5 ng/ml IL-12 (PromoCell) for 3 days at 37° C. Half of the medium was then exchanged by fresh TCM supplemented with 80 U/ml IL-2 and incubating was continued for 4 days at 37° C. This stimulation cycle was performed for a total of three times. For the pMHC multimer readout using 8 different pMHC molecules per condition, a two-dimensional combinatorial coding approach was used as previously described (Andersen et al., 2012) with minor modifications encompassing coupling to 5 different fluorochromes. Finally, multimeric analyses were performed by staining the cells with Live/dead near IR dye (Invitrogen, Karlsruhe, Germany), CD8-FITC antibody clone SK1 (BD, Heidelberg, Germany) and fluorescent pMHC multimers. For analysis, a BD LSRII SORP cytometer equipped with appropriate lasers and filters was used. Peptide specific cells were calculated as percentage of total CD8+ cells. Evaluation of multimeric analysis was done using the FlowJo software (Tree Star, Oregon, USA). In vitro priming of specific multimer+ CD8+ lymphocytes was detected by comparing to negative control stimulations.

With “4 (RLDIQGTGQLL; listed as Homo sapiens) [compound 4]”, the Peptide exchange result in the assay with HLA-A*02:01 is on record as “+++ (>50 = +++)”. Take “5 (SLFDEVRQI; listed as Homo sapiens) [compound 5]”: the Peptide exchange result with HLA-A*02:01 is recorded as “++++ (> 75% = ++++)”. On the same count and under the same terms, then “8 (SVMELLQGV; listed as Homo sapiens) [compound 8]”, with “++++ (> 75% = ++++)”. Take “11 (ALDPIIHGL; listed as Homo sapiens) [compound 11]”: the Peptide exchange result in the assay with HLA-A*02:01 is reported as “++++ (> 75% = ++++)”.

With “12 (ALAPSEGVQAA; listed as Homo sapiens) [compound 12]”, the Peptide exchange entry with HLA-A*02:01 was “++++ (> 75% = ++++)”.

With “13 (ALQNKVVAL; listed as Homo sapiens) [compound 13]”, the Peptide exchange result in the assay with HLA-A*02:01 is “+++ (>50 = +++)”. Regarding “15 (GLLSVELRV; listed as Homo sapiens) [compound 15]”, in the assay with HLA-A*02:01, the Peptide exchange entry was “++++ (> 75% = ++++)”. Same read-out and setting: under “16 (KLNSSIQYV; listed as Homo sapiens) [compound 16]” stands “+++ (>50 = +++)”; under “17 (KLWEESTAQV; listed as Homo sapiens) [compound 17]”, “+++ (>50 = +++)”. Regarding “19 (YLETMNITL; listed as Homo sapiens) [compound 19]”, the Peptide exchange entry with HLA-A*02:01 was “+++ (>50 = +++)”.

With “21 (VLGPEGQLV; listed as Homo sapiens) [compound 21]”, in the assay with HLA-A*02:01, the Peptide exchange entry is “+++ (>50 = +++)”. Still for that read-out and setting: under “22 (VLVSSVLGV; listed as Homo sapiens) [compound 22]” stands “+++ (>50 = +++)”; under “24 (ILDAQTAFV; listed as Homo sapiens) [compound 24]”, “+++ (>50 = +++)”. The same measure, in the same setting: then “25 (ILLELFTHV; listed as Homo sapiens) [compound 25]”, with “++++ (> 75% = ++++)”. As to “26 (SVLAGVVGV; listed as Homo sapiens) [compound 26]”, in the assay with HLA-A*02:01, the Peptide exchange result was “++++ (> 75% = ++++)”. Regarding “27 (VLNPETTVV; listed as Homo sapiens) [compound 27]”, the Peptide exchange result with HLA-A*02:01 is recorded as “+++ (>50 = +++)”. “28 (GLDEAIRKV; listed as Homo sapiens) [compound 28]”: in the assay with HLA-A*02:01, the Peptide exchange entry is “+++ (>50 = +++)”. Regarding “29 (IGIGPVLNI; listed as Homo sapiens) [compound 29]”, the Peptide exchange result with HLA-A*02:01 is on record as “+ (>10% = +)”.

Turning to “30 (TLLDRVAVI; listed as Homo sapiens) [compound 30]”, in the assay with HLA-A*02:01, the Peptide exchange entry is listed as “+++ (>50 = +++)”. “31 (ALLTAVTNV; listed as Homo sapiens) [compound 31]”: the Peptide exchange result with HLA-A*02:01 is given as “+++ (>50 = +++)”.

“32 (GLIENTYQL; listed as Homo sapiens) [compound 32]”: in the assay with HLA-A*02:01, the Peptide exchange result was “+++ (>50 = +++)”.

As for “33 (SMTTNLDLKV; listed as Homo sapiens) [compound 33]”, in the assay with HLA-A*02:01, the Peptide exchange result was “++ (>20% = ++)”. Consider “34 (AIAGRLLGV; listed as Homo sapiens) [compound 34]”, for which the Peptide exchange result with HLA-A*02:01 is given as “++++ (> 75% = ++++)”.

In the case of “35 (TLLPTLYEI; listed as Homo sapiens) [compound 35]”, the Peptide exchange result with HLA-A*02:01 is on record as “+++ (>50 = +++)”. “36 (SLLSDIIAL; listed as Homo sapiens) [compound 36]”: the Peptide exchange entry with HLA-A*02:01 is “+++ (>50 = +++)”. As to “37 (VLLATVTEL; listed as Homo sapiens) [compound 37]”, the Peptide exchange result with HLA-A*02:01 was “+++ (>50 = +++)”.

For “38 (RILDIDIPLSV; listed as Homo sapiens) [compound 38]”, in the assay with HLA-A*02:01, the Peptide exchange entry is given as “+++ (>50 = +++)”. On to “39 (ALDGKIYEL; listed as Homo sapiens) [compound 39]”, for which the Peptide exchange entry with HLA-A*02:01 was “+++ (>50 = +++)”. With “40 (GLLGGVIMMV; listed as Homo sapiens) [compound 40]”, in the assay with HLA-A*02:01, the Peptide exchange result is reported as “++++ (> 75% = ++++)”. The same measure, in the same setting: under “41 (YIDDIFSGV; listed as Homo sapiens) [compound 41]” stands “++++ (> 75% = ++++)”.

In the case of “42 (FLSGYYVTL; listed as Homo sapiens) [compound 42]”, in the assay with HLA-A*02:01, the Peptide exchange result is given as “++++ (> 75% = ++++)”.

For the substance “43 (VIANEIEKV; listed as Homo sapiens) [compound 43]”, the Peptide exchange result in the assay with HLA-A*02:01 is “+++ (>50 = +++)”. For “44 (FLNGLEILL; listed as Homo sapiens) [compound 44]”, in the assay with HLA-A*02:01, the Peptide exchange entry is “++++ (> 75% = ++++)”. For the substance “45 (VLLHVSVLL; listed as Homo sapiens) [compound 45]”, in the assay with HLA-A*02:01, the Peptide exchange result is “++ (>20% = ++)”. On the same count and under the same terms, under “46 (NMDDVIYYV; listed as Homo sapiens) [compound 46]” stands “+++ (>50 = +++)”; under “47 (GLVEQLYDL; listed as Homo sapiens) [compound 47]”, “+++ (>50 = +++)”; under “48 (ILAETQPEL; listed as Homo sapiens) [compound 48]”, “+++ (>50 = +++)”.

As to “49 (ALLELLHEL; listed as Homo sapiens) [compound 49]”, in the assay with HLA-A*02:01, the Peptide exchange entry was “++++ (> 75% = ++++)”. Still for that read-out and setting: then “50 (TLSTVIATV; listed as Homo sapiens) [compound 50]”, with “++++ (> 75% = ++++)”. Still for that read-out and setting: then “51 (TVPPVFVSV; listed as Homo sapiens) [compound 51]”, with “+++ (>50 = +++)”; and “52 (ALISEKLETL; listed as Homo sapiens) [compound 52]”, with “+++ (>50 = +++)”; and “53 (VMHDSSFSV; listed as Homo sapiens) [compound 53]”, with “++++ (> 75% = ++++)”. For the substance “54 (TLSDVVVGL; listed as Homo sapiens) [compound 54]”, the Peptide exchange entry in the assay with HLA-A*02:01 is given as “+++ (>50 = +++)”. For “56 (LLLEILHEI; listed as Homo sapiens) [compound 56]”, in the assay on CD8+ T cells, the wells result is “+ (<20% = +)”. On the same count and under the same terms, then “57 (ALADLTGTVV; listed as Homo sapiens) [compound 57]”, with “+ (<20% = +)”; and “58 (GVLENIFGV; listed as Homo sapiens) [compound 58]”, with “+ (<20% = +)”. The same measure, in the same setting: under “59 (QLLAGVFLA; listed as Homo sapiens) [compound 59]” stands “+ (<20% = +)”; under “62 (SLWGGDVVL; listed as Homo sapiens) [compound 62]”, “++ (20%-49% = ++)”. For the substance “64 (ALYDSVILL; listed as Homo sapiens) [compound 64]”, the wells result with CD8+ T cells was “+ (<20% = +)”. Take “69 (VLTEFTREV; listed as Homo sapiens) [compound 69]”: the wells entry with CD8+ T cells is “+ (<20% = +)”.
